Assay results: US20230357429A1 (JANUX THERAPEUTICS, published 2023)
Where two headings read alike, the source gives them in different places. Where no end group is shown, it is not given here.

T1: Peptide-71 (cysteine pairing not given here; also: biotinylated, site not given here)
T1 construct: mask peptide for the CD3 scFv
T1 peptide: VDCGPDGDESILCY

T2: Peptide-69 (cysteine pairing not given here; also: biotinylated, site not given here)
T2 construct: mask peptide for the CD3 scFv
T2 peptide: SECLVDLQSDPCYW

T3: Peptide-74 (cysteine pairing not given here; also: biotinylated, site not given here)
T3 construct: mask peptide for the CD3 scFv
T3 peptide: ASQCLGPEWEVCPY

T4: Peptide-72 (cysteine pairing not given here; also: biotinylated, site not given here)
T4 construct: mask peptide for the CD3 scFv
T4 peptide: AYCGPEFDESVGCM

T5: Peptide-73 (cysteine pairing not given here; also: biotinylated, site not given here)
T5 construct: mask peptide for the CD3 scFv
T5 peptide: VYCGPEFDESVGCA

T6: Peptide-75 (cysteine pairing not given here; also: biotinylated, site not given here)
T6 construct: mask peptide for the CD3 scFv
T6 peptide: GSACLGPEWEVCPY

T7: Peptide-67 (cysteine pairing not given here; also: biotinylated, site not given here)
T7 construct: mask peptide for the CD3 scFv
T7 peptide: VYCGPEFDESVGCM

T8: Peptide-68 (cysteine pairing not given here; also: biotinylated, site not given here)
T8 construct: mask peptide for the CD3 scFv
T8 peptide: DWCWYSPDNDGLCD

T9: Peptide-66 (cysteine pairing not given here; also: biotinylated, site not given here)
T9 construct: mask peptide for the CD3 scFv
T9 peptide: GSQCLGPEWEVCPY

T10: Peptide-70 (cysteine pairing not given here; also: biotinylated, site not given here)
T10 construct: mask peptide for the CD3 scFv
T10 peptide: YLCGPDGDETLACY

T11: Peptide-76 (cysteine pairing not given here; also: biotinylated, site not given here)
T11 construct: mask peptide for the CD3 scFv
T11 peptide: YLCGPDADETLACY

T12: Peptide-77 (cysteine pairing not given here; also: biotinylated, site not given here)
T12 construct: mask peptide for the CD3 scFv
T12 peptide: YLCGPDTDETLACY


Columns and labels:
Peptide-71 = molecular target: T1, Peptide-71; test: ELISA, TCE on captured biotin-peptide
Experimental: (§1) Binding was measured in a standard ELISA format. […] The TROP2 TCE constructs diluted in buffer were then added to the peptide coated plates. Bound TCEs were detected using a standard horse radish peroxidase conjugate secondary antibody. The ELISA signal was plotted versus the log-scale concentration of TCE. The concentrations of TCE required to observe half maximal binding signal (EC₅₀s) were calculated using Graphpad Prism software.

Peptide-69 = molecular target: T2, Peptide-69; test: ELISA, TCE on captured biotin-peptide
Experimental: as §1

Peptide-74 = molecular target: T3, Peptide-74; test: ELISA, TCE on captured biotin-peptide
Experimental: as §1

Peptide-72 = molecular target: T4, Peptide-72; test: ELISA, TCE on captured biotin-peptide
Experimental: as §1

Peptide-73 [1] = molecular target: T5, Peptide-73; test: ELISA, TCE on captured biotin-peptide
Experimental: as §1

Peptide-75 = molecular target: T6, Peptide-75; test: ELISA, TCE on captured biotin-peptide
Experimental: as §1

Peptide-67 = molecular target: T7, Peptide-67; test: ELISA, TCE on captured biotin-peptide
Experimental: as §1

Peptide-68 = molecular target: T8, Peptide-68; test: ELISA, TCE on captured biotin-peptide
Experimental: as §1

Peptide-66 = molecular target: T9, Peptide-66; test: ELISA, TCE on captured biotin-peptide
Experimental: as §1

Peptide-73 [2] = molecular target: T5, Peptide-73; test: ELISA, TCE on captured biotin-peptide
Experimental: as §1
(§2) Peptide mask sequences were also evaluated for their binding affinities against TROP2 TCE sequences harboring alanine mutations in the CDR3 regions of either or both of the TROP2 and CD3 binding domains.

Peptide-70 = molecular target: T10, Peptide-70; test: ELISA, TCE on captured biotin-peptide
Experimental: as §1, §2

Peptide-76 = molecular target: T11, Peptide-76; test: ELISA, TCE on captured biotin-peptide
Experimental: as §1, §2

Peptide-77 = molecular target: T12, Peptide-77; test: ELISA, TCE on captured biotin-peptide
Experimental: as §1, §2

[3] = molecular target: T13, CD3 (biotinylated CD3 antigen) (human, UniProt P07766 23-126, limits assumed, biotinylated (site not stated)); test: ELISA, TCE on captured biotin-CD3
T13 construct: also called CD3ε; human CD3
T13 sequence (P07766 23-126 limits assumed): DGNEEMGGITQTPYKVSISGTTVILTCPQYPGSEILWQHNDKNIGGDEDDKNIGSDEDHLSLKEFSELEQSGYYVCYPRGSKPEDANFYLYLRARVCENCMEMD

| Binder | EC50 (Peptide-71) | EC50 (Peptide-69) | EC50 (Peptide-74) | EC50 (Peptide-72) | EC50 (Peptide-73 [1]) | EC50 (Peptide-75) | EC50 (Peptide-67) | EC50 (Peptide-68) | EC50 (Peptide-66) | EC50 (Peptide-73 [2]) | EC50 (Peptide-70) | EC50 (Peptide-76) | EC50 (Peptide-77) | EC50 [3] |
| --- | --- | --- | --- | --- | --- | --- | --- | --- | --- | --- | --- | --- | --- | --- |
| TCE-20 (anti-CD3 scFv S110A; anti-TROP2 wt) (bispecific antibody, scFv on the Fab heavy chain; also called TCE-20 (S110A)) light: DIQLTQSPSSLSASVGDRVSITCKASQDVSIAVAWYQQKPGKAPKLLIYSASYRYTGVPDRFSGSGSGTDFTLTISSLQPEDFAVYYCQQHYITPLTFGAGTKVEIKRTVAAPSVFIFPPSDEQLKSGTASVVCLLNNFYPREAKVQWKVDNALQSGNSQESVTEQDSKDSTYSLSSTLTLSKADYEKHKVYACEVTHQGLSSPVTKSFNRGEC heavy: not shown | 1.92 nM | 0.95 nM | 3.46 nM | 0.76 nM | 0.83 nM | 3.82 nM | 0.66 nM | 0.16 nM | 3.65 nM |  |  |  |  |  |
| TCE-38 (anti-CD3 scFv F240A; anti-TROP2 F108A) (bispecific antibody, scFv on the Fab heavy chain) light: DIQLTQSPSSLSASVGDRVSITCKASQDVSIAVAWYQQKPGKAPKLLIYSASYRYTGVPDRFSGSGSGTDFTLTISSLQPEDFAVYYCQQHYITPLTFGAGTKVEIKRTVAAPSVFIFPPSDEQLKSGTASVVCLLNNFYPREAKVQWKVDNALQSGNSQESVTEQDSKDSTYSLSSTLTLSKADYEKHKVYACEVTHQGLSSPVTKSFNRGEC heavy: not shown |  |  |  |  |  |  |  |  |  | 8.87 nM | 0.62 nM | 222 nM | 336 nM | 0.95 nM |
